Experiment [1] addresses T1, rhPSMA, extracellular part of human PSMA (residues 44-750) with its native N-terminus (human, UniProt Q04609 44-750, N-glycosylated (made in Schneider S2 insect cells)).
T1 construct: range 44-750; No tag; also called wild-type rhPSMA; rhGCPII
Nature of the experiment: ELISA on coated rhPSMA; G4 taken as the sixth candidate. The protocol:
50 μL of rhPSMA (5 μg/mL in TBS) was directly adsorbed onto the surface of a MaxiSorp 96-well plate overnight at 4° C. Similarly, ovalbumin-coated wells (10 μg/mL in PBS) were used as a negative control. After blocking with 250 μL of 2% w/v BSA for 1 h at room temperature, 50 μL from a serial Anticalin dilution in PBS was added to each well and incubated for 1 h. The plates were washed three times and bound Anticalins were detected with StrepTactin-AP as described further above. The data were analyzed using Prism 5 software (GraphPad) and absorption values (A) were fitted according to the formula ΔA=Aₘₐₓ·[Lₜₒₜ]/(KD+[Lₜₒₜ]) with the concentration of the applied lipocalin variant [Lₜₒₜ] and the dissociation constant KD.
Specific binding activities of selected Anticalins toward rhPSMA as well as apparent affinity constants were initially determined by ELISA in 96-well Maxisorp plates coated with the recombinant wild-type PSMA protein. Anticalins were applied in a dilution series and detected via the C-terminal Strep-tag II. Five of the six analyzed Anticalin candidates specifically recognized PSMA with apparent dissociation constants (K₀ values) ranging from 6 to 42 nM, for A3 and H3, respectively (FIG. 4). For comparison, binding activity towards ovalbumin, which served as a negative control, was negligible. The G4 clone was later found to bind the anti-FLAG antibody (not shown).
A general note: In an ELISA, binding on a coated surface is turned into a signal by an enzyme label.

In experiment [2] the target is T2, full-length human PSMA expressed on cells (HEK293T/PSMA transfectants, LNCaP) (human, UniProt Q04609 1-750).
T2 construct: whole, on cells; Transfected in HEK293T/17 cells, endogenous in LNCaP cells; In the Western blot it stood in SDS cell lysates; also called full length wild-type PSMA; cellular PSMA
T2 sequence (Q04609 whole entry): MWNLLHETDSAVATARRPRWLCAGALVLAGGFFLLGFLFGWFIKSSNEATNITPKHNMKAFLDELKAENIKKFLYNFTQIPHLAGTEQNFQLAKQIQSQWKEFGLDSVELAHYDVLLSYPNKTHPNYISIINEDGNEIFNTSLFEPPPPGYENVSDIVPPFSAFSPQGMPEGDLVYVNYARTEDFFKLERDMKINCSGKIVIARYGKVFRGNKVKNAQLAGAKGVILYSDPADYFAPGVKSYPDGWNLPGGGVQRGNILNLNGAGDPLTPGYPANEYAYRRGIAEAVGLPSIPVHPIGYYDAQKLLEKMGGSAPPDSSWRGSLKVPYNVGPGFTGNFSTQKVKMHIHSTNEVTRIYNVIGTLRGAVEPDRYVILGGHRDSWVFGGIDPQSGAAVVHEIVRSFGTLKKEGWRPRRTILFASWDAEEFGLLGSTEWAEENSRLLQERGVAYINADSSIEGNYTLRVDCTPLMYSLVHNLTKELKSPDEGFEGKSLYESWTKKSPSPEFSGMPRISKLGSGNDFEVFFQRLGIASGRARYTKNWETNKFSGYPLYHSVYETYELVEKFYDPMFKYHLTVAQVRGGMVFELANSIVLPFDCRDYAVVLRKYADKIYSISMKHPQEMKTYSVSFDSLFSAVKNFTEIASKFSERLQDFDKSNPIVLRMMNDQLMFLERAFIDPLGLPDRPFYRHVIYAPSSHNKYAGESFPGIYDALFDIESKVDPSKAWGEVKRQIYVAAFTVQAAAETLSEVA
Nature of the experiment: immunofluorescence microscopy on fixed, permeabilized cells. The protocol:
PSMA-positive and -negative cells grown on cover slides coated with gelatin (0.1% w/v) were washed twice with PBS, fixed with 4% w/v paraformaldehyde in PBS for 15 min, permeabilized by treatment with PBS containing 0.1% v/v Triton X-100 for 15 min, and incubated in the blocking solution (5% w/v non-fat dried milk/PBS) for 30 min at room temperature (RT). Cells were then incubated with 0.5 μM Anticalin in 5% w/v non-fat dried milk/PBS for 45 min at RT followed by incubation with a Strep-tag II specific monoclonal antibody StrepMAB-Immo (2 μg/mL in PBS/0.05% Tween-20; IBA, 2-1517) for 1 h at RT. An anti-mouse secondary antibody conjugated to Alexa Fluor 488 (5 μg/mL in PBS/0.05% Tween-20; Life Technologies, A11029) served as detection reagent and was applied for 1 h at RT. All incubation steps were interspersed by extensive washing with PBS/0.05% Tween-20. […]
For immunofluorescence microscopy, the different cell lines were fixed with paraformaldehyde on glass coverslips and permeabilized. Following a blocking step, cells were probed with the Anticalin A3A5, which was detected by a murine antibody (StrepMAB-Immo) recognizing the Strep-tag II and an Alexa Fluor 488-labeled anti-mouse secondary antibody. […] Also, when wild-type Lcn2 was used instead of the Anticalin A3A5, no fluorescent staining was detected. […]

Experiment [3] deals with T1, rhPSMA, extracellular part of human …. Nature of the experiment: ELISA, rhPSMA coated on MaxiSorp plate, Anticalin dilution series. An excerpt: FIG. 4: Anticalin affinities towards PSMA as determined by ELISA and BIAcore measurements. Binding activities of Anticalins selected from the original naïve library (A) or resulting from subsequent affinity maturation of the A3 variant (B) were compared in an ELISA. A 96-well MaxiSorp plate was coated with rhPSMA (or ovalbumin as a negative control, not shown) and purified Anticalin variants were applied in dilution series. Anticalin binding was detected using StrepTactin/AP conjugate, followed by chromogenic reaction. Absorption was plotted against the Anticalin concentration and data were analyzed by curve fitting. Binding curves for the best performing clones A3 and A3A5 are shown as solid lines. (C-E) SPR sensograms measured for Anticalins A3, A3A5 and A3A5.1 on a BIAcore 2000 instrument. Approximately 500 RU of rhPSMA was immobilized on a CM5 sensor chip by amine coupling. […]
50 μL of rhPSMA (5 μg/mL in TBS) was directly adsorbed onto the surface of a MaxiSorp 96-well plate overnight at 4° C. […] The plates were washed three times and bound Anticalins were detected with StrepTactin-AP as described further above. The data were analyzed using Prism 5 software (GraphPad) and absorption values (A) were fitted according to the formula ΔA=Aₘₐₓ·[Lₜₒₜ]/(KD+[Lₜₒₜ]) with the concentration of the applied lipocalin variant [Lₜₒₜ] and the dissociation constant KD.

Experiment [4] has the same target. Nature of the experiment: SPR (BIAcore 2000), rhPSMA on chip. The protocol: (§1) Surface plasmon resonance (SPR) spectroscopy was performed on a BIAcore 2000 instrument (BIAcore) following published procedures (Gebauer, M. et al. [2013] J. Mol. Biol. 425:780-802; De Crescenzo, G. et al. [2008] J. Mol. Recognit. 21:256-266). rhPSMA (1 nM in 10 mM Na-acetate pH 5.0) was immobilized on a CM5 sensor chip (BIAcore) using an amine coupling kit (GE Healthcare, BR100050), resulting in around 500 resonance units (ΔRU). The purified Anticalins were diluted in HEPES buffered saline (HBS; 10 mM HEPES/NaOH, 150 mM NaCl, pH 7.4) with 0.005% v/v Tween 20 to concentrations from 64-2 nM. The instrument was operated using the same running buffer at a flow rate of 25 μL/min. […] Regeneration of the sensor chip was achieved by up to four injections of 10 μL glycine/HCl, pH 2.0. The sensorgrams were corrected by double subtraction of the corresponding signals measured for the in-line control blank channel and an averaged baseline determined from three buffer blank injections³¹. Kinetic parameters were determined by data fitting using a 1:1 Langmuir binding model with BIAevaluation software version 4.1 (BIAcore).
To precisely determine kinetic and thermodynamic binding constants of the PSMA-specific Anticalin A3 and its variants, surface plasmon resonance (SPR) real-time analyses was performed on a BIAcore 2000 instrument. […]
A general note: SPR reads the build-up and loss of mass on a sensor chip optically.

The target is the same in experiment [5]. Nature of the experiment: SPR (BIAcore 2000), rhPSMA amine-coupled to CM5 chip, Anticalin as analyte. Here is the method:
Anticalin binding was detected using StrepTactin/AP conjugate, followed by chromogenic reaction. Absorption was plotted against the Anticalin concentration and data were analyzed by curve fitting. Binding curves for the best performing clones A3 and A3A5 are shown as solid lines. (C-E) SPR sensograms measured for Anticalins A3, A3A5 and A3A5.1 on a BIAcore 2000 instrument. Approximately 500 RU of rhPSMA was immobilized on a CM5 sensor chip by amine coupling. A dilution series from 64 to 2 nM of the purified Anticalin in HBS was applied and the resulting curves were fitted according to a Langmuir 1:1 binding model. (F) Comparison of parameters from real-time SPR analysis for Anticalins investigated in C-E, together with A3A5.7, in a kₒₙ/koff plot.
as §1
To precisely determine kinetic and thermodynamic binding constants of the PSMA-specific Anticalin A3 and its variants, surface plasmon resonance (SPR) real-time analyses was performed on a BIAcore 2000 instrument. To this end, rhPSMA was chemically coupled to the carboxymethyl dextran matrix of a sensorchip using amine chemistry and a concentrations series of each Anticalin was applied.

The target is the same in experiment [6]. Nature of the experiment: SPR (BIAcore), rhPSMA on chip, Anticalin as analyte. Here is the method: as §1
Several combinations of mutations occurring in the PSMA-specific Lcn2 variants A3A5.1 (carrying 5 new mutations) and A3A5.7 (carrying 4 new mutations) were prepared in order to investigate the relevance of the mutations that were found during affinity maturation for improved PSMA binding with the aim to create a combined Anticalin variant suitable for further protein engineering studies. A first combination, containing solely the mutations located in the loop regions of the Anticalins, was carried out by introducing the following mutations into the sequence of A3A5 (see SEQ ID NO:2): (i) a Y at position 71 as also present in A3A5.1, (ii) an N at position 74 as also present in A3A5.7, (iii) a D at position 103 as also present in A3A5.1. This triple substitution variant, termed A3A5.8, was obtained by gene synthesis, cloned and subsequently expressed (as described in Example 1).

Experiment [7] shares this target. Nature of the experiment: SPR (BIAcore), rhPSMA on chip. The protocol: as §1, with “(BIAcore). […]” for “(BIAcore).”

Where a chain is given by its changes, count along the chain named.

By Kd is commonly meant a measure of binding affinity in units of concentration. By koff is commonly meant the rate constant with which the complex falls apart. What is called kon is the second-order rate constant of association.

T1 sequence (Q04609 44-750 limits assumed): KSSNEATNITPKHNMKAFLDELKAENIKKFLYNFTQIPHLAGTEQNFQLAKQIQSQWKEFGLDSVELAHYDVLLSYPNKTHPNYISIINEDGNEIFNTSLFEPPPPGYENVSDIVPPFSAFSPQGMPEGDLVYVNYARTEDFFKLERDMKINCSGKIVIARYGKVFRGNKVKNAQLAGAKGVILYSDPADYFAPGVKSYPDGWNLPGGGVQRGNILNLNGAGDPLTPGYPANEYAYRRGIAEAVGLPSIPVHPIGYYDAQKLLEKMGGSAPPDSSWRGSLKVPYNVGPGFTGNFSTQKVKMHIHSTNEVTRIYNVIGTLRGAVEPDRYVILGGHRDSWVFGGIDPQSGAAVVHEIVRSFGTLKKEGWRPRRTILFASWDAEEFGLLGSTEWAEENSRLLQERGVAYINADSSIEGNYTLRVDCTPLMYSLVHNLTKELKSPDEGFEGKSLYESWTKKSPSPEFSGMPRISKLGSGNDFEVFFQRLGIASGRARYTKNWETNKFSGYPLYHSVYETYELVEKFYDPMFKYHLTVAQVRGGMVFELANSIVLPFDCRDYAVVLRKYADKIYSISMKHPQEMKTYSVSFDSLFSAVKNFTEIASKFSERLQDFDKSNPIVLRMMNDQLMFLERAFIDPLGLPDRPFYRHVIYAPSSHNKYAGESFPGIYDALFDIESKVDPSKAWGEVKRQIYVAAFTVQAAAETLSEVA

B1: Anticalin candidate G4 (designed binder)
chain: QDSTSDLIPAPPLSKVPLQQNFQDNQFHGKWYVVGHAGNMLLREDKDPSKMVATIYELKEDKSYNVTQVDFGTKKCFYAINTFVPGSQPGEFTLGHIKSNPGMTSMLVRVVSTNYNQHAMVFFKAVLQNREGFLITLYGRTKELTSELKENFIRFSKSLGLPENHIVFPVPIDQCIDG
notes: also called G4 clone; not shown: C-terminal Strep-tag II
For the molecule B1, the binding result in experiment [1] is “no binding”.

B2: wild-type Lcn2 (other)
chain: QDSTSDLIPAPPLSKVPLQQNFQDNQFQGKWYVVGLAGNAILREDKDPQKMYATIYELKEDKSYNVTSVLFRKKKCDYWIRTFVPGCQPGEFTLGNIKSYPGLTSYLVRVVSTNYNQHAMVFFKKVSQNREYFKITLYGRTKELTSELKENFIRFSKSLGLPENHIVFPVPIDQCIDG
notes: Negative control in microscopy and flow cytometry; also called wt Lcn2; lipocalin 2
For the molecule B2, in experiment [2], the binding result is “no binding (tested: 0.5 µM)”.

B3: Anticalin A3A5 (designed binder)
chain: QDSTSDLIPAPPLSKVPLQQNFQDNQFHGKWYVVGLAGNVILREDKDPYKMSATIYELKEDKSYNVTNVRFYLKKCYYTIATFVPGSQPGEFTLGTIKSGPGKTSGLVRVVSTNYNQHAMVFFKEVQQNREWFIITLYGRTKELTSELKENFIRFSKSLGLPENHIVFPVPIDQCIDG
notes: Differs from A3 by Val for Met at position 40; monomeric, 21 kDa; also called variant A3A5; not shown: C-terminal Strep-tag II
Consider B3, for which, in experiment [3], the Kd came out at 2.1 nM. In addition, the “fold improvement of KD against A3” value in experiment [4] was found to be 2 fold. For the same molecule, in experiment [5], the Kd was determined as 2.5 nM, the koff worked out at 0.00017 s⁻¹ and the kon came to 71000 M⁻¹ s⁻¹.

B4: Anticalin A3A5.8 (designed binder)
chain: B3 chain with F71Y, K74N, K103D
notes: A3A5 with Y at 71, N at 74 and D at 103; also called variant A3A5.8; not shown: C-terminal Strep-tag II
Regarding B4, in experiment [6], the Kd worked out at 1.4 nM, the koff was determined as 0.00015 s⁻¹ and the kon was determined as 110000 M⁻¹ s⁻¹. In addition, in experiment [7], the “fold improvement of KD against A3A5” value was ~2 fold.

For the origin of these results see patent publication US20180318451A1 (published 2018).
